# In the nanobody polyreactivity screen of Harvey et al. (2022):
# Assay: yeast display, Sf9 membrane polyspecificity reagent, FACS + sequencing; frameworks hold sequencing errors
# Summary of the method: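 Synthetic nanobody libraries on Saccharomyces cerevisiae BJ5465 were galactose-induced for 36–48 hours, stained 1 hour at 4 °C with 10% biotinylated, detergent-solubilized Sf9 membrane reagent and enriched on streptavidin microbeads. FACS then separated cells into low and high (top ~1%) gates by anti-HA (expression) and streptavidin (reagent binding) fluorescence. Genes were colony-PCR amplified, MiSeq 2 × 250 sequenced and CDR-length filtered. A clone's polyreactivity label is that of its gate of origin.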
row,Sequence,polyreactivity (PSR sort gate)
1,QVQLVESGGGLVQAGGSLRLSCAASGFIFRYYAMGWYRQAPGKERELVATISSGGGTHYADSVKGRFTISRDNAKNTVYLQMNSLKPEDTAVYYCNARGYRRLRTRVDYWGQGTQVTVSS,high polyreactivity
2,QVQLVESGGGLVQAGGSLRLSCAASGLIFWFYAMGWYRQAPGKERELVAAISGDGDSTYYADSVKGRFTISRDHAKNTVYLQMNSLKPEDTAVYYCAAEWDPVFATDEDDYWGQGTQVTVSS,low polyreactivity
3,QVQLVESGGGLVQAGGSLRLSCAASGFTFVSYAMGWSRQAPGKERELVATITSDGSTNYADSVKGRFTISRDNAKNTVYLQMNSLKPEDTAVYYCAADIHYYPGYLAYDYWGQGTQVTVSS,low polyreactivity
4,QVQLVESGGGLVQAGGSLRLSCAASGSTFGSYTMGWYRQPPGKERELVAAINWSGGNTYYADSVKGRFTISRDNAKNTVYLQMNSLKPEDTAVYYCAAAFYIYGFEGDYWGQGTQVTVSS,low polyreactivity
5,QVQLVESGGGLVQAGGSLRLSCAASGRIFVRNAMGWYRQAPGKEREFVAAISRSGGSTYYAYSVKGRFTISRDNAKNSVYLQMNSLKPEDTAVYYCAADYPKTYTSKFNYWGQGTQVTVSS,high polyreactivity
6,QVQLVESGGGLVQAGGSLRLSCAASGFIFPVNAMGWYRQAPGKERELVAAITSSGGDTYYADSVKGRFTISRDNAKNTVYLQMNSLKPEDTAVYYCAAEYTQEQEDYDYWGQGTQVTVSS,low polyreactivity
7,QVQLVESGGGLVQAGGSLRLSCAASGGTFVLNAMGWYRQAPGKERELVATISSGGGTDYADSVKGRFTISRDNAKNTVYLQMNSLKPEDTAVYYCNTDYILWGDYDYWGQGTQVTVSS,low polyreactivity
8,QVQLVESGGGLVQAGGSLRLSCAASGRIFLGNAMGWYRQAPGKERELVAAITNGGGSTYYADSVKGRFTISRDTAKNTVYLQMNSLKPEDTAVYYCARGYKKSVQRFEYWGQGTQVTVSS,high polyreactivity
9,QVQLVESGGGLVQAGGSLRLSCAASGIIFWRYAMGWYRQAPGKERELVAAIRYRAGSTYYADSVKGRFTISRDNAKNTVYLQLNSLKPEDTAVYYCAAGWWTSPDRRGGDYWGQGTQVTVSS,high polyreactivity
10,QVQLVESGGGLVQAGGSLRLSCAASGSIFWSYAMGWYRQAPGKERELVAAITWSGGNTYADSVKGRFTISRDNAKNTVYLQMNSLTPEDTAVYYCAAYPAHGTKWYVYPSHDDYWGQGTQVNVSS,low polyreactivity
11,QVQLVESGGVLVHAGGSLRLSCAASGITFEYYTMGWYRKAPGKERELVAAISSGGGSTYYADSVKGRFTISRDNAKNTVYLQMKSLKPEDTAVYYCAARGYRADQWEYDYWGQGTQVTVSS,low polyreactivity
12,QVQLVESGGGLVQAGGSLRLSCAASGSIFAHNAMGWYRKAPGKERELVAAISSGGSTNYADSVKGRFTISRDNAKNTVYLQMISLKPEDTAVYYCAAVQYAPKWWGEYDYWGQGTQVTVSS,low polyreactivity
13,QVQLVESGGGLVQAGGSLRLSCAASGRIGVNAMGWYRPAPGKERELVAAITGGASTYYADSVKGRFTISRDNAKNTVYLQMNSLKPEDTAVYYCNATGEYFGYLDLDYDYWGQGTQVTVSS,low polyreactivity
14,QVQLVDSGGGLVQAGGSLRLSCAASGFIFPINAMGWYRQAPGKERELVAAITGGGSTSYADSVKGRFTISRDNAKNTVYLQMNSLKPEDTAVYYCATDRLTYTKYGYWGQGTLVTVSS,low polyreactivity
15,QVQLVESGGGLVQAGGSLRLSCAASGFTFNNYAMGWYRQAPGKERELVAAISSGAGTYYADSVKGRFTISRDNAKNTVYLQMNSLKPEDTAVYYCNASLKYQGLTRITYRDDYWGQGTQVTVSS,low polyreactivity
16,QVQLVESGGGLVQAGGSLRLICAASGITFLRYAMGWYRQAPGKERELVAAISTRGGSTYYADSVKGRFTISRDNAKNTVYLQMNSLKPEDTAVYYCAAAGVTGSYGGKGRWYDFWGQGSQVTVSS,high polyreactivity
17,QVQLVETGGGLVQAGGSLRLSCAASGRIFSNYVMGLYRQAPVKERELVAAISGSGGRTYYADSVKGRFTISRDNAKNTVYVQMNSRTPEDTAVYYCAARRSERDRYGGYYYWGQGTQVTVSS,high polyreactivity
18,QVQLVESGGGLVQAGGSLRLSCAASGSIFRLNAMGWYRQARGKERELVARIDSSGSTNYTDSVKGRFTISRDNAKNTVYLQMNSLKPEDTAVYYCAAGLVLIVGMDSWGQGTQVTVSS,low polyreactivity
19,QVQLVESGGGLVQAGGSLRLSCAASGRTFGIYAMGWYRQAPGKERELVATISWRGGSTYYADSVKGRFTISRDNAKNTVYLQMNSLKPEDTAVSYCAAGYYPYWGQGTQVTVSS,low polyreactivity
20,QVQLVESGGGLVQAGGSLRLSCAASGRIFRSNARGWYRPAPGKERELVAAISSNGGSTYYADSVKGRFTISRDNAKNTVYLQMNSLKPEDTAVYYCAARVYYPVRYGYWGQGTQVTVSS,high polyreactivity
21,QVQLVESGGGLVQAGGSLRLSCAASGSIFIANAMGWYRKAPGKERELVAAISRSGSTTYYADSVKGRFTISRDNAKNTVYLQMNSLKPEDTAVNYCNARYSLHSYYWFIYDSWGQGTQVTVSS,low polyreactivity
22,QVQLVESGGGLVQAGASLRLSCAASGSIFRVYAMGWYRQAPGKERELVATIDTSTDSTYYADSVKGRFTISRDNAKNTVYIQMNSLKPEDTAVYYCNARGTYARYFQYDYSGQGTQVTVSS,low polyreactivity
